# Data as given in PMC4454452 (The Biochemical journal, 2014).
# Assays:
# [1] = test system: H3K4me3, H3K9me3 and H3K27me3; details: previously demonstrated; cited from earlier work
# [2] = target: GST-fusion CHD4 PHD2 (Homo sapiens, UniProt Q14839); experiment: Pull-down of GST-CHD4 PHD2 by biotinylated histone peptides in the absence of 2; assay type: binding; details: absence of 2, Western blot
# [3] = target: CHD4 PHD2 finger (Homo sapiens, UniProt Q14839); details: read-out: Kd of CHD4 PHD2 for histone peptide; cited from earlier work
# Sequence of CHD4 PHD2 finger (Q14839 449-496 limits assumed): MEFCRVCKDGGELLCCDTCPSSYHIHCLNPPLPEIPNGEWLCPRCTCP
# Sequence of GST-fusion CHD4 PHD2 (Q14839 449-496 limits assumed): as above
binding of GST–CHD4 PHD2 to biotinylated histone peptide [2],Compound,"binding to trimethylated lysine peptides H3K4me3, H3K9me3 and H3K27me3 [1]",Kd [3] [µM]
,"O=S(=O)(O)c1cc2c(O)c(c1)Cc1cc(S(=O)(=O)O)cc(c1O)Cc1cc(S(=O)(=O)O)cc(c1O)Cc1cc(S(=O)(=O)O)cc(c1O)C2 [Compound 1, p-sulfonatocalix[4]arene]",equally well,
significantly weaker,H3K4me3: biotinylated histone H3 peptide (residues 1–20) trimethylated at Lys4 [Compound H3K4me3],,~2000
no interaction,H3K27me3: biotinylated histone H3 peptide (residues 21–44) trimethylated at Lys27 [Compound H3K27me3],,
